From the nanobody polyreactivity screen of Harvey et al. (2022)

Experiment: yeast display, Sf9 membrane polyspecificity reagent, FACS + sequencing; frameworks hold sequencing errors
Method in brief: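 Nanobodies from a synthetic yeast display library (Saccharomyces cerevisiae BJ5465), induced 36–48 hours with galactose, were stained 1 hour at 4 °C with 10% biotinylated, detergent-solubilized Sf9 membrane reagent, enriched on streptavidin microbeads, then FACS-sorted. Anti-HA (expression) and streptavidin (reagent binding) fluorescence set low and high (top ~1%) gates. Polyreactivity labels come from the gate of origin. Genes were colony-PCR amplified, MiSeq 2 × 250 sequenced and filtered by CDR length.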

QVQLVESGGGLVQAGGSLRLSCAASGFTFDSNAMGWYRQAPGKERELVAAISSSGGSTYYADSVKGRFTISRDNAKNTVYLQMNSLKPEDTAVYYCNARRRTVPYRYDYWGQGTQVTVSS
polyreactivity (PSR sort gate): high polyreactivity

QVQLVESGGGLFQAGGSLRLSSAASGFTFWYYAMGWYRQAPGKERELVASISRTGGTTYYADSVKGRFKISRDIAKNTVYLQMNSLKPEDTAVYYCAARRQARRYWEGDYWCQGTQVTVSS
polyreactivity (PSR sort gate): high polyreactivity

QVQLEESGGGLVQAGGSLRLSCAASGFTFTDYALGWYRQAPGTERELVAVITYDSTYYADPVKGRFTISRDNAKNTVYLQMNSLNPEDTAVYFCAADSYDWGDFDYWGQGTQVTVSS
polyreactivity (PSR sort gate): low polyreactivity

QVQLVESGGGLVQAGGSLRLSCAASGFTFDPYAMGWYREAPGKERELVAAISFSGGSTSYADSVKGRFTISRDNAKNSVYFQMNSLKPEDTAVYYCAAYSWLYEGYEYWGQGTQVTVSS
polyreactivity (PSR sort gate): high polyreactivity

QVQLVESGGGLVQAGGSLRLSCAASGSIFYFYTMGWYRQAPGKERELVASITYSGGRTYYADSVKGRFTISRDNAKNSVYLQMNSLKPEDTAVYYCAVRGYRRYWGQGTQVTVSS
polyreactivity (PSR sort gate): high polyreactivity

QVQLVESSGGLVQAGGSLRLICAASGRIFSRYPMGWYRKAPGKERELVAAITYSGGNTYYADSVKGRFTISRDYAKNTVYLQMNSLKPEDTAVYYCNAYRPYYSYVSHEHYYWGQGTQVTVSS
polyreactivity (PSR sort gate): high polyreactivity

QVQLVESGGGLVQAGGSLRLSCAASGSIFAPYDMGWYRQAPGKERELVAAIDWGGDSTYYADSVKGRFTISRDNAKNTVYLQMNSLKPEDTAVYYCAADDLWLSYRTEYDYYYWGQGTQVTVSS
polyreactivity (PSR sort gate): low polyreactivity

QVQLVESGGGLVQAGGSLRLSCAASGRTFDLNDMGWYRQAPGKEREFVADIDWSGGNTYYADSVKGRFIISRDNAKNTVYLQMNSLKPEDTAVYYCNARRKRSYDYWGQGTQVTVSS
polyreactivity (PSR sort gate): low polyreactivity

QVQLQESGGGLVQAGGSLRLSCAASGSISRLDYRGWYRQASGKERELVAAIDNGSTTYYADSVKGRLTISRDNAKYTVYLQMNSLKPEDTAVYFCAAVRGRGGTHAYWGQGTQVTVSG
polyreactivity (PSR sort gate): low polyreactivity

QVQLVESGGGLVQAGGSLRLSCAASGITFGVYAMGWYRQAPGKERELVAAISSGDSTYYADSVKGRFTISRDNAKNTVYLQMNSLKPEDTAVYYCNAYYGVFYWDAEYGYDYWGQGTQVTVSS
polyreactivity (PSR sort gate): high polyreactivity

QVQLVESGGGLVQAGGSLRLSCAASGRTFYYYAMGWYREAPGKERELVAAINSGVTTSYADSVKGRFTISRDNAKNTVYLQMNSLKPEDTAVYYCAARTFSAFWRGGYDYWGQGTQVTVSS
polyreactivity (PSR sort gate): low polyreactivity

QVQLVESGGGLVQAGGSLRLSCAASGSIFDYNTMGWYRQAPGKERELVAVISGTGGSTYYADSVKGRFTISRGNAKNTVYLQMNSLKPEDTAVYYCAADTFVRNQWYLVEYWGQGTQVTVSS
polyreactivity (PSR sort gate): low polyreactivity

QVQLVESGGGLVQAGGSLRLSCAASGFTFGWNAMGWYRQAPGKERELVAAISWSGGSTYYADSVKGRFTISRDNAKNTVYLQMNSLKPEDTAVYYCAAYPAYGGDYWGQGTQVTVSS
polyreactivity (PSR sort gate): high polyreactivity

QVQLVESGGGLVQAGGSLRLSCAASGSIFSANTMGWYRQAPGNEREFVAGITTSAGRTDYADSVKGRFTISRDNAKNTVYVQMNSLKPEDTAVYYCNADRRYYYHYRRYWYDYWGQGTQVTVSS
polyreactivity (PSR sort gate): high polyreactivity

QVQLVESGGGLVQAGGRLRLSCAASGSIFPYYVMGWYRQAPGKERELVAAISTSDGSTYADSVKGRFTISRDNAKNTVYLQMNSLKPEDTAVYYCAVANVYYVGYDYWGQGTRVTVSS
polyreactivity (PSR sort gate): low polyreactivity

QVQLVESGGGLVQAGGSLRLSCAASGYIFTYYAMGWYRQAPGKERELVAAISGSDGNTYYADSVKGRFTISRDNAKKTDYLEMISLKPEDTAVYYCAKSGGLTFRSQRYDYWGQGTQVNVSS
polyreactivity (PSR sort gate): low polyreactivity

QVQLVESGGGLVQAGGSLRLSCAASGRIFNLYDMGWYRQAPGKERELVAAIRIGDRTYYADSVKGRFTISRDNAKNTVYLQMNSLKPEDTAVYYCNREYLSNRDKRFYYWGQGTQVTVSS
polyreactivity (PSR sort gate): low polyreactivity

QVQLVESGGGLVQAGGSLRLSCAASGRTFPLYGMGWYRQAPGKERELVATISRSGGSTYYADSVKGRFTISRDNAKNTVYLQMNSLKPEDTAVYYCIADRHYVPYYSRPRYIPYDYWGQGTQVTVSS
polyreactivity (PSR sort gate): high polyreactivity

QVQLVESGGGLVQAGGSLRLSCAASGSTFPAYAMGWYRQAPGKERELVATITYTGGSTYYADSVKGRFTISRDNAKNTVYLQMNSLKPEDTAVYYCAADRWDQEDEFDYWGQGTQVTVSS
polyreactivity (PSR sort gate): low polyreactivity

QVQLVESGGGLLQAGGSLRLSCAASGRNFRLYPMGWYRQAPGTERDFLAAITFSGGRTYYADSVKGRFTISRDNAKNTVYLQMKSLKPEDTAVYYCAARGQTGYYSGVGYWGLGTQVTVSS
polyreactivity (PSR sort gate): high polyreactivity

QVQLVESGGGLVQAGGSLRLSCAASGITFADNAMGWYRQAPGKERELVAANSWSGDRTFYADSVKGRFTISRDNAKNTVYLQMNSLKPEDTAVYYCARDSLQVFYPYASDDYWGQGTQVTVSS
polyreactivity (PSR sort gate): low polyreactivity

QVQLVESGGGLVQAGGSLRLSCAASGLTFYVYAMGWYRQAPGKERELVAAISSGGRTYYADSVKGRFTISRDNAKNTVYLQMNSLKPEDTAVYYCAARSPVWRTTEDYWGQGTQVTVSS
polyreactivity (PSR sort gate): high polyreactivity

QVQLVESGGGLVQAGGSLRLSCAASGSIFRSNAMGWYRQAPGQERELVAAISRSGGRTYYADSVKGRFTISRDNAKNTVYLQMNSLKPEDTAVYYCAAQVVRSLKYEYWGQGTQVTVSS
polyreactivity (PSR sort gate): high polyreactivity

QVQLVESGGGLVQAGGSLRLSCAASGSTFYFNAMGWYRQAPGKERELVAGIRYSGSSTYYADSVKGRFTISRDNAKNTVYLQMNSLKPEDTAVYYCAARYSVYPRVSKYSYRFNYWGQGNQVTVSS
polyreactivity (PSR sort gate): high polyreactivity

QVQHVESGGGLVQAGGSLRLSCAASGLIYSYYTMGWYRQAPGKERDLVAAITGSGGTTYYADSVKGRFTISRDNAKNTVYIQMNSLKPEDTAVYYCATPPPEVWQRWYREYDYWGQGTQVTVSS
polyreactivity (PSR sort gate): low polyreactivity

QVQLEESGGGLVQAGFSLRLSCAASGRIFVPNAMGWSRPAPGKEGELVAAIRWTGGSTYYADSVQGRFTISRDNAKNTVYLQMNSLKPEDTAVSYCAARYAARRLTYFWPQYARYDYWGQGTQVTVSS
polyreactivity (PSR sort gate): high polyreactivity

QVQHVESGGGLVQAGGSLRISSAASGYIFDKYAMGRYRQAPGKERELVAAITYSGGSTYYADSVKGRFTISRDNAKNTVYLQMNSLIAEDTAVNYCAPEVRRSTLEFGYWRQGTQVTVSS
polyreactivity (PSR sort gate): high polyreactivity

QVQLVESGGGLVQSGGSLRLSCAASGFTFSRYAMGWYRQAPGKERELVAAIRLRDGITYYADSVKVRFTISRDNAKNTVYLQMNSLKPEDTAVYYFNAVNRTPVSQLDYWGQGTQVTVSS
polyreactivity (PSR sort gate): high polyreactivity

QVQLVESGGGLVQAGGSLRLSCAASGFTFYAYVMGWYRQAPGKERELVAAISGSGTSTYYADSVKGRFTISRDNAKNTVYLQMNSLKPEDTAVYYCAADYYPWDLDDDYWGQGTQVTVSS
polyreactivity (PSR sort gate): high polyreactivity

QVQLVESGGGLVQAGGSLRLSFAASGFIFDKYAMGWYRQAPGKERELVATITSGGSTYYADSVKGRFTISRDNAKNYVYLQMYSLKREDTADYYCAALDYGYRWYRYYYWGQGSQVTVSS
polyreactivity (PSR sort gate): high polyreactivity

QVQLVESGGGLVQEGGSLRLSCAASGFTFPYYAMGWYRQAPGKERELVAAISNGGSNTYYADSVKGRFTISRDNAKNTVYVQMNSLKPEDTAVYYCAARVGGSYDYWGQGTQVTVSS
polyreactivity (PSR sort gate): high polyreactivity

QVQLVESGGGLVQAGGSLRLSCAASGFTFSYYDMGWYRQAPGKERELVAAITQSGGSTYYADSVKGRFTISRDNAKNTVYLQMNSLKPEDTEVFYCAALTYRWSARDYWGQGTQVTVSS
polyreactivity (PSR sort gate): high polyreactivity

QVQLVESGGRLVQAGGSLRLSCAASGFTIPHYAMGWYRQAPGKERELVAVISFSGGRTYYADSVKGRFTISRDNAKNTVYLQMNSLKPEDTAVYYCPAGFWDDYGKYYYWGQGTQVTVSS
polyreactivity (PSR sort gate): high polyreactivity

QVQLVESGGGLVQAGGSLRLSCAASGSTFSVYAMGWYRQAPGKERELVAAISSGGTTNYADSVKGRFTISRDNAKNTVYLQMNSLKPEDTAVYYCAAEYDHYPYDYYWGQGTQVTVSS
polyreactivity (PSR sort gate): low polyreactivity

QVQLLESGGGLVQAGGSLRLSCAASGFTFVYYAMGWYRQAPGKERELVAAISSSGGITYYADSVKGRFTISRDNAKNTVYLQMNSMKPEDTAVYYCAARLWYPYYYWGQGTQVTVSS
polyreactivity (PSR sort gate): high polyreactivity

QVQLVESGGGLVQAGGRLRLSCAASGRTIVQNAMVWYRHDPGKERALVAAITSSGGRTYYADSVKGRFTISRDNAKNTVYLQMNSLKPEDTAVYYGAVTLRRGYDYWGQGTQVTVSS
polyreactivity (PSR sort gate): high polyreactivity

QVQLVESGGGLVQAGGSLRLSCPASGFIYPVYAMGWSRQAPGKERELVAAISRRGGSTYYADSVKGRFTISRDNAKNTVYLQMNSLKPDDTAVYYCAKDGRGDPVKDDYWGLGTQVTVSS
polyreactivity (PSR sort gate): high polyreactivity

QVQLVESGGGLVQAGGSLRLSCAASGRIFTYAMGWYRQAPGKERELVAAISRRGGSTYYADSVKGRFTISRDNAKNTVYLQMNSLKPEDTAVYYCAKERSFGDGNFDYEYWGQGTQVTVSS
polyreactivity (PSR sort gate): high polyreactivity

QVQLVESGGGLVQAGGSLRLSCAASGSIFGGNAMGWYRQAPGKERELVAAITTGDGSTYYADSVKGRFTISRDNAKNTVYLQMNSLKPEDTAVYYCAADIVHDRFDYWGQGTQVTVSS
polyreactivity (PSR sort gate): low polyreactivity

QVQLLESGGGLVQPGGILRLSCAASGSTFVRYAMGWYRQAPGKERELVAAISYRGGSTYYADSVKGLFTISRDNANNSVYLELYSLKPEDTAVYYCAAESRHVEGEYWGQGTQVTVSS
polyreactivity (PSR sort gate): high polyreactivity

QVQLVESGGGLVLAGGSLRLSCAASGSIFNVYAMGWYRQAPGKERELVASITRRRTNYADSVKGRFTISRDNAKNTVYLQMNSLKPEDTAVYYCAATTYVRQYATYDYWGQGTQVTVSS
polyreactivity (PSR sort gate): high polyreactivity

QVQLVESGGGLVQAGGSLRLSCAASGLTFTSYAMGWYRQAPGKERELVAAIDWSGGRTYYADSVKGRFTISRDNAKNTVYLQMNSLKPEDTAVYYCYKYRYQWPYRRFDYWGQGTQVTVSS
polyreactivity (PSR sort gate): high polyreactivity

QVQLVESAGGLVQAGGSLRLSCAASGSLFSLYAMGWYRQAPGKERELVAAITQSGGTKFYADSVKGRFTISRDNAKNTVYLQMNRLKPEDTAVYYCAAEWYRCYVPLGVAGEYDYWGQGTQVTVSS
polyreactivity (PSR sort gate): low polyreactivity
